Assay results from patent US20120094923A1 (published 2012).
Values belong to the binder of their own block, whether it stands above or below them.

Assays:
[1] = biological target: T1, BPTI-K15R/R17D (bovine, UniProt P00974 36-93); assay: co-crystal structure, PDB 3P95
Procedure: The heterodimeric complexes were further purified by HiLoad Superdex 75 gel filtration chromatography (GE Healthcare), exchanged into 10 mM Na acetate, pH 6.5, and concentrated to ˜3 mg/mL. […] Drops (4 μL) were prepared by mixing equal volumes of protein and reservoir solutions.

[2] = biological target: T2, BPTI-K15R/R17G (bovine, UniProt P00974 36-93); assay: co-crystal structure, PDB 3P92
[3] = biological target: T2, BPTI-K15R/R17G; assay: slow tight-binding inhibition kinetics
Procedure: Reactions were run at 25° C., and were followed spectroscopically for 16 hours so that reliable steady-state rates could be obtained.

[4] = biological target: bovine pancreatic trypsin inhibitor, wild type (bovine, UniProt P00974 36-93); assay: 1/Ki from competitive inhibition
[5] = biological target: T2, BPTI-K15R/R17G; assay: 1/Ki from competitive inhibition
[6] = biological target: BPTI-K15R (bovine, UniProt P00974 36-93); assay: 1/Ki from competitive inhibition
[7] = biological target: BPTI-R17M (bovine, UniProt P00974 36-93); assay: 1/Ki from competitive inhibition
[8] = biological target: T1, BPTI-K15R/R17D; assay: 1/Ki from competitive inhibition
[9] = biological target: BPTI-K15R/R17M (bovine, UniProt P00974 36-93); assay: 1/Ki from competitive inhibition

- binding result [1]: binds
- binding result [2]: binds
B1: catalytically inactive mesotrypsin-S195A (enzyme)
chain: IVGGYTCEENSLPYQVSLNSGSHFCGGSLISEQWVVSAAHCYKTRIQVRLGEHNIKVLEGNEQFINAAKIIRHPKYNRDTLDNDIMLIKLSSPAVINARVSTISLPTAPPAAGTECLISGWGNTLSFGADYPDELKCLDAPVLTQAECKASYPGKITNSMFCVGFLEGGKDSCQRDAGGPVVCNGQLQGVVSWGHGCAWKNRPGVYTKVYNYVDWIKDTIAANS
notes: Used for the co-crystal structures; also called S195A mutant

- binding result [3]: binds
B2: recombinant human anionic trypsin (enzyme, UniProt P07478 24-247, looked up)
chain: IVGGYICEENSVPYQVSLNSGYHFCGGSLISEQWVVSAGHCYKSRIQVRLGEHNIEVLEGNEQFINAAKIIRHPKYNSRTLDNDILLIKLSSPAVINSRVSAISLPTAPPAAGTESLISGWGNTLSSGADYPDELQCLDAPVLSQAECEASYPGKITNNMFCVGFLEGGKDSCQGDSGGPVVSNGELQGIVSWGYGCAQKNRPGVYTKVYNYVDWIKDTIAANS
notes: mature

- Ka [4]: 74100 M⁻¹
- Ka [5]: 9.3e+07 M⁻¹
- Ka [6]: 417000 M⁻¹
- Ka [7]: 1.32e+06 M⁻¹
- Ka [8]: 667000 M⁻¹
- Ka [9]: 4.76e+06 M⁻¹
B3: recombinant human mesotrypsin (enzyme)
chain: IVGGYTCEENSLPYQVSLNSGSHFCGGSLISEQWVVSAAHCYKTRIQVRLGEHNIKVLEGNEQFINAAKIIRHPKYNRDTLDNDIMLIKLSSPAVINARVSTISLPTAPPAAGTECLISGWGNTLSFGADYPDELKCLDAPVLTQAECKASYPGKITNSMFCVGFLEGGKDSCQRDSGGPVVCNGQLQGVVSWGHGCAWKNRPGVYTKVYNYVDWIKDTIAANS
notes: also called PRSS3
